# Entries after “also recorded” stand apart in the source; their conditions may differ.
# B1: m28-RNLS: rabbit anti-renalase monoclonal raised against RNLS peptide RP-220; heavy chain SEQ ID NO:9, light chain SEQ ID NO:10 (antibody)
# heavy: METGLRWLLLVAVLKGVQCQSVEESGGRLVTPGTPLTLTCTVSGFSLSSFAVGWVRQAPGKGLEYIGIISSVGITRYASWAAGRFTISKTSTTVDLKITSPTTEDTATYFCARYGYSGDVNRLDLWGQGTLVTVSSGQPKAPSVFPLAPCCGDTPSSTVTLGCLVKGYLPEPVTVTWNSGTLTNGVRTFPSVRQSSGLYSLSSVVSVTSSSQPVTCNVAHPATNTKVDKTVAPSTCSKPTCPPPELLGGPSVFIFPPKPKDTLMISRTPEVTCVVVDVSQDDPEVQFTWYINNEQVRTARPPLREQQFNSTIRVVSTLPIAHQDWLRGKEFKCKVHNKALPAPIEKTISKARGQPLEPKVYTMGPPREELSSRSVSLTCMINGFYPSDISVEWEKNGKAEDNYKTTPAVLDSDGSYFLYSKLSVPTSEWQRGDVFTCSVMHEALHNHYTQKSISRSPGK
# light: MDTRAPTQLLGLLLLWLPGATFAQVLTQTASPVSAAVGGTVTINCQASQSVYDNNNLAWYQQKPGQPPKQLIYGASTLASGVSSRFKGSGSGTQFTLTISGVQCDDAATYYCLGEFSCSSADCFAFGGGTEVVVKGDPVAPTVLIFPPSADLVATGTVTIVCVANKYFPDVTVTWEVDGTTQTTGIENSKTPQNSADCTYNLSSTLTLTSTQYNSHKEYTCKVTQGTTSVVQSFNRGDC
# modifications: 1D-28-4 full length heavy chain amino acid; 1D-28-4 full length light chain amino acid
# Legend:
# Panc1 cells = test: FACS analysis of apoptosis and cell cycle; type: cell-based, human; settings: 30 μg/ml
# Description: For cell cycle analysis, cultured cells were dissociated using 10 mM EDTA, fixed with ice-cold 70% ethanol, digested with RNAse A, and stained with propidium iodide. Propidium staining was detected using a BD FACSCalibur flow cytometer (BD Biosciences, San Jose, Calif., USA), and analyzed using CellQuest software.
# Apoptosis was detected and quantified as previously done (Guo et al., 2012 Cancer Science. 103(8):1474-80). In brief, cells were stained with FITC-labeled Annexin-V and propidium iodide according to the manufacturer's instructions (Bender MedSystems, Burlingame, Calif., USA). At least 20,000 events were collected on a BD FACSCalibur flow cytometer (BD Biosciences, San Jose, Calif., USA) and analyzed using CellQuest software.
# A375.S2 xenograft tumors = type: in vivo
# Description: Briefly, tumor tissues were formalin-fixed, paraffin-embedded and cut into 5-m sections on glass slides. The slides were de-paraffinized and hydrated, followed by antigen retrieval in a pressure cooker containing 10 mM sodium citrate, pH6 buffer. The sections were blocked in 3% hydrogen peroxide for 30 min and 2.5% normal horse serum in PBS/0.1% Tween20 for 1 h followed by incubation with primary antibody and isotype control IgG overnight at 4° C. The following antibodies were used in this study: m28-RNLS at 500 ng/ml; goat polyclonal anti-RNLS at 250 ng/ml (Abcam, ab31291); rabbit monoclonal anti-CD68 (BDBioscience, 1:100); rabbit monoclonal anti-CD163 (AbD Serotec, 1:100); rabbit monoclonal anti-CD86 (Abcam, 1:100); rabbit monoclonal anti-Ki67 (Vector Lab, VP-RM04, 1:100); rabbit monoclonal anti-p21, […], and total Stat3 (Cell Signaling Technologies, #2947, 1:100, #9145, 1:400, and #4904, 1:400, respectively). ImmPRESS peroxidase-anti-rabbit IgG (Vector Laboratories, Burlingame, Calif., USA) was used to detect primary antibodies. […] Slides were observed and photographed using an Olympus BX41 microscope and camera (Olympus America Inc, Center Valley, Pa., USA).
# Female athymic, 18-20 g nude mice (nu/nu) were obtained from Charles River (Willimantic, Conn.) and housed in microisolator cages, with autoclaved bedding in a specific pathogen-free facility, with a 12-h light/dark cycle.
# Xenograft tumors were established by subcutaneous injection of A375.S2 cells (2×10^6 in 100 μl of PBS, pH 7.6). When the tumors reached a volume of 50-100 mm^3, the mice were divided into a control group (n=14 treated with rabbit IgG, 40 μg by intraperitoneal injection (IP) once weekly, and 40 ug subcutaneously (SQ) around the tumor site every 3 days), and an experimental group (n=14) that received m28-RNLS (40 μg IP, once weekly, and 40 ug SQ, every 3 days). Tumor size was measured with digital calipers and volume was calculated according to the formula (length×width^2)×π/2.
# At the end of the study, the mice were sacrificed, the tumors were excised and immediately snap-frozen in liquid nitrogen and stored at −80° C. Apoptosis was examined using the TUNEL assay (Roche in situ Apoptosis Detection System), according to the manufacturer's instructions. Sections were examined by light microscopy and the apoptosis index was determined by counting ≥1000 cells in 10 randomly selected high-power fields (×200 magnification).
# [1] = system: YUMM mouse melanoma tumor; test: anti-PD1 resistant YUMM melanoma engrafted into immunocompetent C57B6 mice; type: in vivo; settings: qPCR
# Description: Experiments were conducted to assess the synergism between anti-RNLS antibody and anti-PD1 antibody against a tumor cell line that is resistant to anti-PD1 agents (i.e., YUMM) (FIG. 35). The anti-PD1 resistant mouse melanoma cell line (YUMM) was engrafted into immunocompetent C57B6 mice. After the engrafted YUMM tumor volume reached about 100 mm^3 (i.e., day 0), treatments were administered on days 0, 7, 9, and 12, as indicated by the arrows on […].
# Experiments were conducted to measure PD1 and PD-L1 mRNA expression by qPCR in unfractioned tumor mass after treatment with anti-RNLS antibody (m28) alone, anti-PD1 antibody alone, and the combination of anti-RNLS antibody (m28) and anti-PD1 antibody (FIG. 36).
# Experiments were conducted to measure CD8a mRNA expression by qPCR in unfractioned tumor mass after treatment with anti-RNLS antibody (m28) alone, anti-PD1 antibody alone, and the combination of anti-RNLS antibody (m28) and anti-PD1 antibody.
# [2] = system: PDACC (pancreatic ductal adenocarcinoma cells); test: PDACC viability with anti-RNLS antibodies, WST-1; type: cell-based, human; settings: 72 hrs
# Description: FIG. 25, comprising FIGS. 25A through 25E, is a series of charts and images showing that inhibition of RNLS signaling is cytotoxic to cancer cells in vitro and in vivo. FIG. 25A is a chart showing relative cell viability following transient transfection of Panc1 cells using a RNLS-specific siRNA, or a non-specific control siRNA, and cell viability assayed 96 h later using the WST-1 reagent; n=6, ** indicates p<0.001. FIG. 25B is a chart showing relative cell viability when cells were treated with indicated antibodies for 72 hrs and cell viability determined using WST-1; m28-RNLS and m37-RNLS: monoclonal antibodies raised against RNLS peptide RP220, ab31291: Abcam polyclonal antibody raised against a partial sequence of RP-220; n=6, * indicates p<0.005. […] FIG. 25D is a chart showing tumor volume increase after athymic nude mice received subcutaneous injection of Panc1 cells transduced with RNLS shRNA (sh-RNLS) or control (sh-Control); tumor volume measured every […] for up to 30 days, n=6 each; * indicates p<0.05. FIG. 25E is chart showing tumor volume increase after nude mice were xenografted with BxPC3; tumor volume measured prior to treatment every 3-4 days with 2 mg/kg of either rabbit IgG as a negative control or with m28-RNLS, n=10, * indicates p<0.05.
# Cell viability was assessed by trypan blue exclusion, and cells were counted using a BioRad TC10 automated counter.
# [3] = immunofluorescence / western blot
molecule,measurement,setting,value
B1,cell cycle (FACS),Panc1 cells,pre-G2 cell cycle arrest
same,apoptosis (FACS),Panc1 cells; 4 days,caused apoptosis
same,number of CD163+ TAMs,A375.S2 xenograft tumors; immunofluorescence,considerable decrease; also recorded: decreases
same,RNLS protein expression in tumors,A375.S2 xenograft tumors; [3],dramatic reduction; also recorded: decreases; also recorded: marked reduction
same,total and phosphorylated STAT3 (p-Y705-STAT3) in tumors,A375.S2 xenograft tumors; [3],significantly decreased; also recorded: marked reduction
same,ratio of CD86+ to CD163+ TAMs,"A375.S2 xenograft tumors; mouse, in vivo",increases
same,TUNEL positive cells (apoptosis),"A375.S2 xenograft tumors; n=14, control 4.3±0.2",13.3±0.6 positive cells
same,"p21 positive cells (cell cycle regulator, IHC)","A375.S2 xenograft tumors; n=14, control 12.2±1.0",24.2±2.4 positive cells
same,"Ki67 positive cells (cellular proliferation marker, IHC)","A375.S2 xenograft tumors; n=14, control 35.1±2.3",13.4±3.0 positive cells/high power field
same,human (tumor) RNLS expression in tumor mass,"A375.S2 xenograft tumors; qPCR, human specific primers",without affecting
same,mouse (endogenous) RNLS expression in tumor mass,"A375.S2 xenograft tumors; qPCR, mouse specific primers",significant reduction
same,toxicity (overall animal health and activity),A375.S2 xenograft tumors; throughout the study,did not appear to be toxic
same,tumor volume,"A375.S2 xenograft tumors; vs control rabbit IgG, 40 μg IP weekly and 40 ug SQ every 3 days",decreased tumor volume at all points tested
same,CD8a mRNA expression in unfractioned tumor mass (cytotoxic T cells),[1],activates cytotoxic T cells
same,PDACC growth / viability,[2],inhibitory effects

# — patent publication US20210355235A1, “Compositions and Methods For Treating Cancer with Anti-Renalase antibodies and Anti-PD1 antibodies” (YALE UNIVERSITY, priority 2017, published 2021)
